Test results from paper PMC8951703, “A multifunctional enolase mediates cytoadhesion and interaction with host plasminogen and fibronectin in Mycoplasma hyorhinis” (Veterinary Research, 2022).

Molecular target: T1, Recombinant M. hyorhinis enolase, wild-type (Mycoplasma hyorhinis (strain HUB-1), UniProt P0DXB0 1-450)
T1 construct: enolase of Mycoplasma hyorhinis strain HUB-1, full-length gene MHR_0469 of GenBank CP002170.1, codon-optimized and synthesized; the C-terminal residues are K451 and K452; also called rEno; rEno WT
Assay: SPR; plasminogen or fibronectin immobilised on CM5 chips by amine coupling (600 RU); recombinant enolase proteins 0-4000 nM injected at 30 uL/min for 180 s, 20 °C, dissociation 1000 s; 10 mM HEPES, 150 mM NaCl, 3 mM EDTA, 0.05% surfactant P20; Biacore X100
Settings: both partners purified

B1: plasminogen (natural protein)
chain: EPLDDYVNTQGASLFSVTKKQLGAGSIEECAAKCEEDEEFTCRAFQYHSKEQQCVIMAENRKSSIIIRMRDVVLFEKKVYLSECKTGNGKNYRGTMSKTKNGITCQKWSSTSPHRPRFSPATHPSEGLEENYCRNPDNDPQGPWCYTTDPEKRYDYCDILECEEECMHCSGENYDGKISKTMSGLECQAWDSQSPHAHGYIPSKFPNKNLKKNYCRNPDRELRPWCFTTDPNKRWELCDIPRCTTPPPSSGPTYQCLKGTGENYRGNVAVTVSGHTCQHWSAQTPHTHNRTPENFPCKNLDENYCRNPDGKRAPWCHTTNSQVRWEYCKIPSCDSSPVSTEQLAPTAPPELTPVVQDCYHGDGQSYRGTSSTTTTGKKCQSWSSMTPHRHQKTPENYPNAGLTMNYCRNPDADKGPWCFTTDPSVRWEYCNLKKCSGTEASVVAPPPVVLLPDVETPSEEDCMFGNGKGYRGKRATTVTGTPCQDWAAQEPHRHSIFTPETNPRAGLEKNYCRNPDGDVGGPWCYTTNPRKLYDYCDVPQCAAPSFDCGKPQVEPKKCPGRVVGGCVAHPHSWPWQVSLRTRFGMHFCGGTLISPEWVLTAAHCLEKSPRPSSYKVILGAHQEVNLEPHVQEIEVSRLFLEPTRKDIALLKLSSPAVITDKVIPACLPSPNYVVADRTECFITGWGETQGTFGAGLLKEAQLPVIENKVCNRYEFLNGRVQSTELCAGHLAGGTDSCQGDSGGPLVCFEKDKYILQGVTSWGLGCARPNKPGVYVRVSRFVTWIEGVMRNN
Kd: 1.4 ± 0.07 nM
